The text below walks through data of the supplement of paper PMC5998384.

Series [1] concerns HeLa Kyoto. Put plainly: solubility in G1/S (NP-40 vs SDS abundance) (log2 ratio); higher = more soluble. The conditions noted are these: cell cycle stage: G1/S.
Series [2] has as its system HeLa Kyoto. Put plainly: melting temperature (median over replicates), in situ; higher = more thermally stable.
Series [3] relates to HeLa Kyoto. The series can be described thus: solubility change mitosis vs G1/S (difference of NP-40 vs SDS log2 ratios) (log2 ratio difference); higher = more soluble in mitosis.
Series [4] deals with HeLa Kyoto. The series can be described thus: thermal stability score vs G1/S (z-score of summed log2 fold changes over temperatures); higher = more thermally stable than in G1/S.
Where [5] appears, read: cell cycle stage: early G1 (4.5 h after nocodazole release).
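For melting temperature (median over replicates), in situ in this document: HeLa Kyoto cells synchronized by double thymidine or nocodazole block, proteins quantified by TMT10plex mass spectrometry, three independent biological replicates.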
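For solubility change mitosis vs G1/S (difference of NP-40 vs SDS log2 ratios) in this document: synchronized HeLa Kyoto cells (double thymidine block for G1/S, nocodazole release for mitosis), protein amounts in NP-40 versus SDS lysates quantified by mass spectrometry, three biological replicates.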
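For solubility in G1/S (NP-40 vs SDS abundance) in this document: HeLa Kyoto cells arrested at G1/S by double thymidine block, proteins quantified by TMT10plex mass spectrometry in mild NP-40 versus SDS extracts, three biological replicates.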
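For thermal stability score vs G1/S (z-score of summed log2 fold changes over temperatures) in this document: synchronized HeLa Kyoto cells, proteins quantified by TMT10plex mass spectrometry, three biological replicates, mitosis taken 0.5 h after nocodazole release, G1/S directly after double thymidine block.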

Chain of UBR4 (chain, as listed by the source): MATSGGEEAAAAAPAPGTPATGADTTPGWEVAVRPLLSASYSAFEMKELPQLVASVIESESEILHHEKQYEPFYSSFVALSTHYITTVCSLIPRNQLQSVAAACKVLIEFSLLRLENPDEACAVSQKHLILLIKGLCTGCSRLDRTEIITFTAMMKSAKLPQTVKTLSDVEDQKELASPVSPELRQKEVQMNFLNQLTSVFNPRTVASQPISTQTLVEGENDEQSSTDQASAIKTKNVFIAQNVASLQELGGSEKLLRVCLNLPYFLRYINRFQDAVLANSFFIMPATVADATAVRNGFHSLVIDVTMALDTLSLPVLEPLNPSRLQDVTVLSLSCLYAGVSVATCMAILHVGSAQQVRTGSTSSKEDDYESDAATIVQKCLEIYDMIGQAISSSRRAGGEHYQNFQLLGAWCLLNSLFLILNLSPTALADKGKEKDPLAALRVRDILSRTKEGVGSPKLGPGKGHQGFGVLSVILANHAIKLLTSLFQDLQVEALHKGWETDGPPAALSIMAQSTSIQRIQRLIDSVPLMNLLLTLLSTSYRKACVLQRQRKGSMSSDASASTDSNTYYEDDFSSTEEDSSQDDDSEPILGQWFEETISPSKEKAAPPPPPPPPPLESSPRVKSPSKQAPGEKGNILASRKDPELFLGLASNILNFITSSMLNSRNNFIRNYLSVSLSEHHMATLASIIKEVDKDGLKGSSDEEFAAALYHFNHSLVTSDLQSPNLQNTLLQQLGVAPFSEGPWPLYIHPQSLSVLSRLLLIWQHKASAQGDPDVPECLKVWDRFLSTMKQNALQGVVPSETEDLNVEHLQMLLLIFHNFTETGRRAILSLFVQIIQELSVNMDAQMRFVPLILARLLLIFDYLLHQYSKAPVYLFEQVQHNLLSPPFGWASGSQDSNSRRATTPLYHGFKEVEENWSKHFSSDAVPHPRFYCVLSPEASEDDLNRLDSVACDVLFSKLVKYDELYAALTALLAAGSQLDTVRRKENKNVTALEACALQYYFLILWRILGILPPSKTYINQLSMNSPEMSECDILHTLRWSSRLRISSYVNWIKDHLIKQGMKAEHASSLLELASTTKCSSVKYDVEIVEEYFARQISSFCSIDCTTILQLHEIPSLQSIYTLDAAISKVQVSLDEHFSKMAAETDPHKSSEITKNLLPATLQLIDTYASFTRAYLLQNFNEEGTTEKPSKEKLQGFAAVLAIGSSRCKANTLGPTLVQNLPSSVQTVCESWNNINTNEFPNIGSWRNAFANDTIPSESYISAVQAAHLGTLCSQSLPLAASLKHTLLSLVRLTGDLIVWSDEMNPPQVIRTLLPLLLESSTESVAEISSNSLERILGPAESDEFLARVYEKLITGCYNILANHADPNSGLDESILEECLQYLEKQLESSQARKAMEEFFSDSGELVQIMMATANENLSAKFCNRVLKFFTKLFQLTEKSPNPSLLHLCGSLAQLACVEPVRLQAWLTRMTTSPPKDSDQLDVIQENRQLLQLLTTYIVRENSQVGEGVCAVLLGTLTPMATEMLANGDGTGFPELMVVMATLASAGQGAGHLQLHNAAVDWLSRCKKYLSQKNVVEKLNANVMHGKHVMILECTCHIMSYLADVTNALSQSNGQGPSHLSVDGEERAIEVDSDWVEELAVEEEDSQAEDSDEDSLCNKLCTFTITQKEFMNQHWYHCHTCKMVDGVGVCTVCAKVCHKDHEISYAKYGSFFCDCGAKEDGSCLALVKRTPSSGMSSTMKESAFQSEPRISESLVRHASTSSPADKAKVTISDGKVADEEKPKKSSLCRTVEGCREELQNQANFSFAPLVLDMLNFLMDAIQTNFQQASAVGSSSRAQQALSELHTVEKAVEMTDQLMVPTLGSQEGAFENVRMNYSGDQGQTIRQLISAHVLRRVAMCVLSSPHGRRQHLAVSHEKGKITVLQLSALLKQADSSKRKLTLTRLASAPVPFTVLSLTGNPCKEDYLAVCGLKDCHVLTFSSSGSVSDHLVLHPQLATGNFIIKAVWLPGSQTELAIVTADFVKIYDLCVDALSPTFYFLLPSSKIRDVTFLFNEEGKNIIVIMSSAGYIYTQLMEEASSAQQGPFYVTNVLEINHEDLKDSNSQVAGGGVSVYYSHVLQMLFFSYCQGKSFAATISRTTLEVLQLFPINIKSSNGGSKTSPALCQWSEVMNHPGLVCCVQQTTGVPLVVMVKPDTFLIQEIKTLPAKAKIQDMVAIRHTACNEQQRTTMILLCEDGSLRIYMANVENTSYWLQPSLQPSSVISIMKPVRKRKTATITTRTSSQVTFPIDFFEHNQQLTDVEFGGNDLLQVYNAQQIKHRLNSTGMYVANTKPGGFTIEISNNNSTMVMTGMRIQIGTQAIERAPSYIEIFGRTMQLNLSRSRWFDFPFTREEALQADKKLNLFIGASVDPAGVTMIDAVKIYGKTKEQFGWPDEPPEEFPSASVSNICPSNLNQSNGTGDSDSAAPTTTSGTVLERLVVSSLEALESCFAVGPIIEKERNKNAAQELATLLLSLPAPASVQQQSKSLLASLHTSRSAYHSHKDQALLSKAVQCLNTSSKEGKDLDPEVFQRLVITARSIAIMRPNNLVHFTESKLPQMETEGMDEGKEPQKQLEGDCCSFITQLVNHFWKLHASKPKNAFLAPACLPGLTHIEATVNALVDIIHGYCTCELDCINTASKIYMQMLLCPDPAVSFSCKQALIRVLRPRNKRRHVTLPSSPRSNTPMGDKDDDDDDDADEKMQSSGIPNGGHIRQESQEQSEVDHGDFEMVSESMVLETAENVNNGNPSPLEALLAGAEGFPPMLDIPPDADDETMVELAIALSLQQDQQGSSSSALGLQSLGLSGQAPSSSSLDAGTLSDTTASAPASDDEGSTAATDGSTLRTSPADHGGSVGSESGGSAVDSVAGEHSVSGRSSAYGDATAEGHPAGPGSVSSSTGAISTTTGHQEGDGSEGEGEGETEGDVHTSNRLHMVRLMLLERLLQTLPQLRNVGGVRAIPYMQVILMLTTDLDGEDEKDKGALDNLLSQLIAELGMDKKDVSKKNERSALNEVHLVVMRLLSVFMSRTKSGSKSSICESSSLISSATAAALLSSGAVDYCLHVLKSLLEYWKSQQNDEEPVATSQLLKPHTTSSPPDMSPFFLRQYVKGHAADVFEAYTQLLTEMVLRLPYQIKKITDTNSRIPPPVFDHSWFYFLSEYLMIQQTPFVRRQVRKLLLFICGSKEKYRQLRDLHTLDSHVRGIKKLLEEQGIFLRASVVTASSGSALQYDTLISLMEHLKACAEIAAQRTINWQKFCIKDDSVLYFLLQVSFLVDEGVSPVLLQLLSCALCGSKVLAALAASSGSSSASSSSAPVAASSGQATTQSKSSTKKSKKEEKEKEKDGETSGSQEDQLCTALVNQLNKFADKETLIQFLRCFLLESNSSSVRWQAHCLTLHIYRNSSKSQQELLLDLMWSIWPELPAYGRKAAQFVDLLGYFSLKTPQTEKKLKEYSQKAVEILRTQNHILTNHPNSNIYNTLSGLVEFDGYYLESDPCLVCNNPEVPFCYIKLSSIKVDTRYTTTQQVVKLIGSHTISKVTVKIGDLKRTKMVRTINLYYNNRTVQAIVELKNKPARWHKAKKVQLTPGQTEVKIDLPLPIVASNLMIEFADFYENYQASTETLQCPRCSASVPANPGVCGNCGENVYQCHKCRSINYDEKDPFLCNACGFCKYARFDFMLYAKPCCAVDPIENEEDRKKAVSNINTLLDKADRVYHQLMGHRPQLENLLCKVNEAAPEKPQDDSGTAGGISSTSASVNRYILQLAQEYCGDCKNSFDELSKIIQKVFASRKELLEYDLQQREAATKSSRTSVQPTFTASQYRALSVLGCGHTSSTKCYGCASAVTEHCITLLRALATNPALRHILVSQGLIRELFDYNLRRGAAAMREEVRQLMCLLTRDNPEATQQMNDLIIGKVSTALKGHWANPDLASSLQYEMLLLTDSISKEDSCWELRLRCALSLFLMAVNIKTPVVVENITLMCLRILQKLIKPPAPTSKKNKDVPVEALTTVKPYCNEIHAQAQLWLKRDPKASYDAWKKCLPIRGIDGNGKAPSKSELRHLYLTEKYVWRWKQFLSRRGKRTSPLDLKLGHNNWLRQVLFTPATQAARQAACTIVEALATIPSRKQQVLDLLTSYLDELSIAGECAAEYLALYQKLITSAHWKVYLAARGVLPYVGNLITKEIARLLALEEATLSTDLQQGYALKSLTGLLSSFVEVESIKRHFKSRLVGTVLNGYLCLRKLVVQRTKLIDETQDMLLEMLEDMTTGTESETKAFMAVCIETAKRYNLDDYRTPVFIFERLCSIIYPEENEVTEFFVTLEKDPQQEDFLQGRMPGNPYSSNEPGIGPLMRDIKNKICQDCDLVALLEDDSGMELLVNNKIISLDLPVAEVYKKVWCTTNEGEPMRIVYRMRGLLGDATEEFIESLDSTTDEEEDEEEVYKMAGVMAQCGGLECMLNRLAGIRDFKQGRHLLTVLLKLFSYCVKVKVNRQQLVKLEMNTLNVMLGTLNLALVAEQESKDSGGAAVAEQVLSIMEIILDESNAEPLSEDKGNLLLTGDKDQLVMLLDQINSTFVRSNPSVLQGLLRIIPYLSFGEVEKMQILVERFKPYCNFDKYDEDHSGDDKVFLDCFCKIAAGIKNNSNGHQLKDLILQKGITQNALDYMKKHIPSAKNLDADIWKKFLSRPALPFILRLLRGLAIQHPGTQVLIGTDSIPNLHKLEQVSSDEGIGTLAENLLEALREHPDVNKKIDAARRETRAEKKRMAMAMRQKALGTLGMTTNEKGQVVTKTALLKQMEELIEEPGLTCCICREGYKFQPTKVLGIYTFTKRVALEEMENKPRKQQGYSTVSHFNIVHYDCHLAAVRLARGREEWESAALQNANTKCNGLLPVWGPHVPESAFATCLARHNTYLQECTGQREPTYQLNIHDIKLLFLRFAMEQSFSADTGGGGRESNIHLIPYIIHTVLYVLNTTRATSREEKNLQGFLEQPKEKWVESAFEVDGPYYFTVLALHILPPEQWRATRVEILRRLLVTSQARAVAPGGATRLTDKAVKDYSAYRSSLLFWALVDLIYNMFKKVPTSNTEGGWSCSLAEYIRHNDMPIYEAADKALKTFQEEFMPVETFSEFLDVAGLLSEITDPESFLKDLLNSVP

On to “MATGANATPLDFPSKKRKRSRWNQDTMEQKTVIPGMPTVIPPGLTREQERAYIVQLQIEDLTRKLRTGDLGIPPNPEDRSPSPEPIYNSEGKRLNTREFRTRKKLEEERHNLITEMVALNPDFKPPADYKPPATRVSDKVMIPQDEYPEINFVGLLIGPRGNTLKNIEKECNAKIMIRGKGSVKEGKVGRKDGQMLPGEDEPLHALVTANTMENVKKAVEQIRNILKQGIETPEDQNDLRKMQLRELARLNGTLREDDNRILRPWQSSETRSITNTTVCTKCGGAGHIASDCKFQRPGDPQSAQDKARMDKEYLSLMAELGEAPVPASVGSTSGPATTPLASAPRPAAPANNPPPPSLMSTTQSRPPWMNSGPSESRPYHGMHGGGPGGPGGGPHSFPHPLPSLTGGHGGHPMQHNPNGPPPPWMQPPPPPMNQGPHPPGHHGPPPMDQYLGSTPVGSGVYRLHQGKGMMPPPPMGMMPPPPPPPSGQPPPPPSGPLPPWQQQQQQPPPPPPPSSSMASSTPLPWQQNTTTTTTSAGTGSIPPWQQQQAAAAASPGAPQMQGNPTMVPLPPGVQPPLPPGAPPPPPPPPPGSAGMMYAPPPPPPPPMDPSNFVTMMGMGVAGMPPFGMPPAPPPPPPQN [SF1]”, for which the “solubility in G1/S (log2)” value with HeLa Kyoto [1] was 0.255. In the series on HeLa Kyoto [2] (cell cycle stage: G1/S), this substance gave a melting temperature of 53.4 °C. For the same substance, the “solubility change mitosis (log2)” value with HeLa Kyoto [3] turned out to be 0.135. The thermal stability score is -4.58 in the series on HeLa Kyoto [4] (setting [5]) and -1.85 in the series on HeLa Kyoto [4] (cell cycle stage: mitosis).

In the case of “MKGKEEKEGGARLGAGGGSPEKSPSAQELKEQGNRLFVGRKYPEAAACYGRAITRNPLVAVYYTNRALCYLKMQQHEQALADCRRALELDGQSVKAHFFLGQCQLEMESYDEAIANLQRAYSLAKEQRLNFGDDIPSALRIAKKKRWNSIEERRIHQESELHSYLSRLIAAERERELEECQRNHEGDEDDSHVRAQQACIEAKHDKYMADMDELFSQVDEKRKKRDIPDYLCGKISFELMREPCITPSGITYDRKDIEEHLQRVGHFDPVTRSPLTQEQLIPNLAMKEVIDAFISENGWVEDY [STUB1]”, in the series with HeLa Kyoto [1], the “solubility in G1/S (log2)” value is 0.397. For the same substance, the values for the melting temperature in the series with HeLa Kyoto [2] (cell cycle stage: G1/S) and in the series with HeLa Kyoto [2] (cell cycle stage: mitosis) were 46.7 °C and 49.5 °C, respectively. Besides, in the series with HeLa Kyoto [3], the “solubility change mitosis (log2)” value amounted to 0.0745. The thermal stability score in the series with HeLa Kyoto [4] (setting [5]) turned out to be 1.3; with HeLa Kyoto [4] (cell cycle stage: mitosis) it was 2.29.

For “MGSGARFPSGTLRVRWLLLLGLVGPVLGAARPGFQQTSHLSSYEIITPWRLTRERREAPRPYSKQVSYVIQAEGKEHIIHLERNKDLLPEDFVVYTYNKEGTLITDHPNIQNHCHYRGYVEGVHNSSIALSDCFGLRGLLHLENASYGIEPLQNSSHFEHIIYRMDDVYKEPLKCGVSNKDIEKETAKDEEEEPPSMTQLLRRRRAVLPQTRYVELFIVVDKERYDMMGRNQTAVREEMILLANYLDSMYIMLNIRIVLVGLEIWTNGNLINIVGGAGDVLGNFVQWREKFLITRRRHDSAQLVLKKGFGGTAGMAFVGTVCSRSHAGGINVFGQITVETFASIVAHELGHNLGMNHDDGRDCSCGAKSCIMNSGASGSRNFSSCSAEDFEKLTLNKGGNCLLNIPKPDEAYSAPSCGNKLVDAGEECDCGTPKECELDPCCEGSTCKLKSFAECAYGDCCKDCRFLPGGTLCRGKTSECDVPEYCNGSSQFCQPDVFIQNGYPCQNNKAYCYNGMCQYYDAQCQVIFGSKAKAAPKDCFIEVNSKGDRFGNCGFSGNEYKKCATGNALCGKLQCENVQEIPVFGIVPAIIQTPSRGTKCWGVDFQLGSDVPDPGMVNEGTKCGAGKICRNFQCVDASVLNYDCDVQKKCHGHGVCNSNKNCHCENGWAPPNCETKGYGGSVDSGPTYNEMNTALRDGLLVFFFLIVPLIVCAIFIFIKRDQLWRSYFRKKRSQTYESDGKNQANPSRQPGSVPRHVSPVTPPREVPIYANRFAVPTYAAKQPQQFPSRPPPPQPKVSSQGNLIPARPAPAPPLYSSLT [ADAM9]”, the “solubility in G1/S (log2)” value with HeLa Kyoto [1] is -0.486. For the same substance, the melting temperature with HeLa Kyoto [2] (cell cycle stage: G1/S) worked out at 57.3 °C; with HeLa Kyoto [2] (cell cycle stage: mitosis), 56.8 °C. Further, in the series on HeLa Kyoto [3], the “solubility change mitosis (log2)” value is -0.00657. In addition, the thermal stability score with HeLa Kyoto [4] (setting [5]) is -2.54; in the series with HeLa Kyoto [4] (cell cycle stage: mitosis) it was -2.91.

Take “MFWKFDLNTTSHVDKLLDKEHVTLQELMDEDDILQECKAQNQKLLDFLCRQQCMEELVSLITQDPPLDMEEKVRFKYPNTACELLTCDVPQISDRLGGDESLLSLLYDFLDHEPPLNPLLASFFSKTIGNLIARKTEQVITFLKKKDKFISLVLKHIGTSALMDLLLRLVSCVEPAGLRQDVLHWLNEEKVIQRLVELIHPSQDEDRQSNASQTLCDIVRLGRDQGSQLQEALEPDPLLTALESQDCVEQLLKNMFDGDRTESCLVSGTQVLLTLLETRRVGTEGLVDSFSQGLERSYAVSSSVLHGIEPRLKDFHQLLLNPPKKKAILTTIGVLEEPLGNARLHGARLMAALLHTNTPSINQELCRLNTMDLLLDLFFKYTWNNFLHFQVELCIAAILSHAAREERTEASGSESRVEPPHENGNRSLETPQPAASLPDNTMVTHLFQKCCLVQRILEAWEANDHTQAAGGMRRGNMGHLTRIANAVVQNLERGPVQTHISEVIRGLPADCRGRWESFVEETLTETNRRNTVDLVSTHHLHSSSEDEDIEGAFPNELSLQQAFSDYQIQQMTANFVDQFGFNDEEFADQDDNINAPFDRIAEINFNIDADEDSPSAALFEACCSDRIQPFDDDEDEDIWEDSDTRCAARVMARPRFGAPHASESCSKNGPERGGQDGKASLEAHRDAPGAGAPPAPGKKEAPPVEGDSEGAMWTAVFDEPANSTPTAPGVVRDVGSSVWAAGTSAPEEKGWAKFTDFQPFCCSESGPRCSSPVDTECSHAEGSRSQGPEKASQASYFAVSPASPCAWNVCVTRKAPLLASDSSSSGGSHSEDGDQKAASAMDAVSRGPGREAPPLPTVARTEEAVGRVGCADSRLLSPACPAPKEVTAAPAVAVPPEATVAITTALSKAGPAIPTPAVSSALAVAVPLGPIMAVTAAPAMVATLGTVTKDGKTDAPPEGAALNGPV [PPP6R2]”: the “solubility in G1/S (log2)” value in the series with HeLa Kyoto [1] worked out at 0.0656. Moreover, the values for the melting temperature in the series with HeLa Kyoto [2] (cell cycle stage: G1/S) and in the series on HeLa Kyoto [2] (cell cycle stage: mitosis) were 54.5 °C and 52.8 °C, respectively. The “solubility change mitosis (log2)” value in the series with HeLa Kyoto [3] was -0.119. Moreover, the thermal stability score with HeLa Kyoto [4] (setting [5]) is -0.206; in the series on HeLa Kyoto [4] (cell cycle stage: mitosis) it was -1.5.

In the case of PIEZO1, the “solubility in G1/S (log2)” value with HeLa Kyoto [1] was -0.227. The melting temperature in the series on HeLa Kyoto [2] (cell cycle stage: G1/S) came out at 57.1 °C; with HeLa Kyoto [2] (cell cycle stage: mitosis), 56.5 °C. Moreover, the “solubility change mitosis (log2)” value with HeLa Kyoto [3] is -0.0922. The thermal stability score in the series on HeLa Kyoto [4] (setting [5]) was -1.8; with HeLa Kyoto [4] (cell cycle stage: mitosis) it was -2.23.

For the substance UBR4, the “solubility in G1/S (log2)” value in the series with HeLa Kyoto [1] is -0.243. For the same substance, the melting temperature is 51.3 °C in the series on HeLa Kyoto [2] (cell cycle stage: G1/S) and 50.4 °C in the series with HeLa Kyoto [2] (cell cycle stage: mitosis). In the series with HeLa Kyoto [3], the “solubility change mitosis (log2)” value is -0.163. The thermal stability score is -0.403 with HeLa Kyoto [4] (setting [5]) and 0.0628 with HeLa Kyoto [4] (cell cycle stage: mitosis).

For MDN1, the “solubility in G1/S (log2)” value in the series with HeLa Kyoto [1] is -0.665. Besides, the results for the melting temperature in the series with HeLa Kyoto [2] (cell cycle stage: G1/S) and in the series with HeLa Kyoto [2] (cell cycle stage: mitosis) were 51.1 °C and 50.5 °C, respectively. Also, the “solubility change mitosis (log2)” value in the series on HeLa Kyoto [3] stood at 0.182. Further, the thermal stability score in the series with HeLa Kyoto [4] (setting [5]) worked out at 0.349; in the series with HeLa Kyoto [4] (cell cycle stage: mitosis) it was 1.35.

MYO9B: the “solubility in G1/S (log2)” value with HeLa Kyoto [1] is -0.141. Besides, the melting temperature came to 50.4 °C with HeLa Kyoto [2] (cell cycle stage: G1/S) and 49.6 °C with HeLa Kyoto [2] (cell cycle stage: mitosis). Also, the “solubility change mitosis (log2)” value in the series with HeLa Kyoto [3] was 0.00466. Further, the thermal stability score in the series with HeLa Kyoto [4] (setting [5]) was -0.189; in the series with HeLa Kyoto [4] (cell cycle stage: mitosis), -0.197.
